In paper PMC5531466, “Biochemical characterization of a new nicotinamidase from an unclassified bacterium thriving in a geothermal water stream microbial mat community” (PLoS ONE, 2017):

Tests used:
[1] = test system: NC(=O)c1cnccn1; assay: purified protein; details: Fe2+ active site
[2] = test system: CCOC(=O)c1cccnc1; assay: purified protein; details: Fe2+ active site; C155 thiolate attack at C7 of ethylnicotinate
[3] = test system: COC(=O)c1cccnc1; assay: purified protein; details: Fe2+ active site
[4] = test system: Cc1cncc(C(N)=O)c1; assay: purified protein; details: Fe2+ active site
[5] = molecular target: T1, (UniProt H5SPS2); assay: HPLC nicotinamidase assay, Morrison equation; also thermal shift (Tm […] °C); type: biochemical
T1 construct: full-length, N-terminal 6-histidine tag (pET28a)
T1 sequence (H5SPS2 1-220): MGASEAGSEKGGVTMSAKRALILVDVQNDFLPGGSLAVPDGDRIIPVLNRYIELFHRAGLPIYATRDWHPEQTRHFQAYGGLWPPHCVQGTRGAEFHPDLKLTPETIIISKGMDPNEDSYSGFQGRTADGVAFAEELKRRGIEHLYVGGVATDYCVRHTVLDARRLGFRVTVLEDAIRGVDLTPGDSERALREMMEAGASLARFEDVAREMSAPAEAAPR

Compound	Km [1]	kcat [1]	kcat/Km [1]	Km [2]	kcat [2]	kcat/Km [2]	Km [3]	kcat [3]	kcat/Km [3]	Km [4]	kcat [4]	kcat/Km [4]	Ki [5]
UbNic (nicotinamidase) (uncultured Acidobacteriota bacterium)	330 ± 50 µM	18.7 ± 0.3 s⁻¹	56700 M⁻¹ s⁻¹	1310 ± 30 µM	3.7 ± 0.3 s⁻¹	2800 M⁻¹ s⁻¹	1080 ± 110 µM	54.5 ± 0.8 s⁻¹	50500 M⁻¹ s⁻¹	1090 ± 200 µM	43.7 ± 0.3 s⁻¹	40100 M⁻¹ s⁻¹	
O=Cc1cccnc1 [nicotinaldehyde]													180 ± 1 nM
